Assay results from patent US20190106460A1, “BINDING INHIBITORS OF THE BETA. TRANSDUCIN REPEAT-CONTAINING PROTEIN” (priority 2011, published 2019).
Like-named read-outs stand apart in the source and are kept apart here. Starred links: 1 amine or outer side, 2 acyl side, 3 side chain; linkers in the order of their positions; H or OH if unused. Suc = O=C(CCC(=O)[*:2])[*:1]

Assays:
[1] = target: βTrCP (tag cleaved and complexed with Skp1), Q9Y297; experiment: FP competition vs fluorescein-IκB peptide
Chain of βTrCP (tag cleaved and complexed with Skp1), Q9Y297 (Q9Y297 175-605, chain 1 of 2): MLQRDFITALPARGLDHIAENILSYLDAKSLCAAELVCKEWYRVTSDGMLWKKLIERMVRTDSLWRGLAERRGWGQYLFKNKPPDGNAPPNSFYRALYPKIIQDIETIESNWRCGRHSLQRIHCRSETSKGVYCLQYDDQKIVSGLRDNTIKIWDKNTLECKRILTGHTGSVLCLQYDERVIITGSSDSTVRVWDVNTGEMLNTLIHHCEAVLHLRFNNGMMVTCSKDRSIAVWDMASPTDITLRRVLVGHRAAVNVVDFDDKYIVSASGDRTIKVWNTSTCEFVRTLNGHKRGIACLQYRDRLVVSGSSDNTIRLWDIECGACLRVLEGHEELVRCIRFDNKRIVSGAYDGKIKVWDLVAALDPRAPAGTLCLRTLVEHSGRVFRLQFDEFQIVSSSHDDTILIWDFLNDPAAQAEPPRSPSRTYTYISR
Chain of βTrCP (tag cleaved and complexed with Skp1), Q9Y297 (P63208 whole entry, chain 2 of 2, further chain): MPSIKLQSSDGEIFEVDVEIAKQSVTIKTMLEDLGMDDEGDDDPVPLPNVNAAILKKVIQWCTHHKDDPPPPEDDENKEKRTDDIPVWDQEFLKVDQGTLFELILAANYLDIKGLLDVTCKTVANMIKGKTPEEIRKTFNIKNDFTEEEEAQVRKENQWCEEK

[2] = target: βTrCP (tag cleaved and complexed with Skp1), Q9Y297; experiment: FP competition vs fluorescein-IκB peptide; remark: listed apart in the source
[3] = target: HisβTrCP/Skp1 and HisβTrCP/GSTSkp1 (immobilised on NTA Biacore chip), Q9Y297; experiment: SPR, Biacore T200, βTrCP/Skp1 immobilised
Chain of HisβTrCP/Skp1 and HisβTrCP/GSTSkp1 (immobilised on NTA Biacore chip), Q9Y297 (Q9Y297 175-605, chain 1 of 2): as the sequence (Q9Y297 175-605, chain 1 of 2) above
Chain of HisβTrCP/Skp1 and HisβTrCP/GSTSkp1 (immobilised on NTA Biacore chip), Q9Y297 (P63208 whole entry, chain 2 of 2, further chain): as the sequence (P63208 whole entry, chain 2 of 2, further chain) above

[4] = target: T1, Fbw7, Q969H0; experiment: cell-based or functional assay
T1 chain: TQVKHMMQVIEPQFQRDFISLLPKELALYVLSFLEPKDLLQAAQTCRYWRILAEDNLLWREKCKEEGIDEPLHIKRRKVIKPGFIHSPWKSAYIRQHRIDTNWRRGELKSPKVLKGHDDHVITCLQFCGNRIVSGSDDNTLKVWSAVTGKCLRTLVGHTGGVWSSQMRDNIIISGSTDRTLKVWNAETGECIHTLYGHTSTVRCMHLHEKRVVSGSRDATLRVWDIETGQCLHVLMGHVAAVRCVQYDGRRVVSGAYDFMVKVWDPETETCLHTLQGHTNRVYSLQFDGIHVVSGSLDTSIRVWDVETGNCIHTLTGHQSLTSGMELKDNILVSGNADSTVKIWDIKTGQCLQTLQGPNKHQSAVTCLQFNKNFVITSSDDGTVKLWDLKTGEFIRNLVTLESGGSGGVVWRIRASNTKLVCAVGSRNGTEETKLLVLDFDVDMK

[5] = target: Skp2, Q13309; experiment: cell-based or functional assay
Chain of Skp2, Q13309 (Q13309 whole entry): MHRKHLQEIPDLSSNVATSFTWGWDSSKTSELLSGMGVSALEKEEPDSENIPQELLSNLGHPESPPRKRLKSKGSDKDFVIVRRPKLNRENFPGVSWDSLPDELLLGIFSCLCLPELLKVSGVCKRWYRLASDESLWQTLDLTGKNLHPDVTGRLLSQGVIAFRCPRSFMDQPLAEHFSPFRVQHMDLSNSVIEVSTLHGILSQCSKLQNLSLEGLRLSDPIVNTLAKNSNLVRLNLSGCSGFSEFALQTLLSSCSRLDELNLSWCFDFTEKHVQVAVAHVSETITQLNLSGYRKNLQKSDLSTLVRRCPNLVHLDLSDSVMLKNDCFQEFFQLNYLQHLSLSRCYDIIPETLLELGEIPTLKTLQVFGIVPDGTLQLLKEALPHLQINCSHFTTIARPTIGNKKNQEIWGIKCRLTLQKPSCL

B1: Suc-EGYFE-NH2 (peptide)
peptide: Suc-EGYFE-NH2
SMILES: NC(=O)[C@H](CCC(=O)O)NC(=O)[C@H](Cc1ccccc1)NC(=O)[C@H](Cc1ccc(O)cc1)NC(=O)CNC(=O)[C@H](CCC(=O)O)NC(=O)CCC(=O)O
[1]
  IC50: 1000 nM
[2]
  IC50: 1040 nM
[3]
  Kd: 537 nM
[4]
  % Inhibition Fbw7 @ 10 µM: 0%
  % Inhibition Fbw7 @ (100 µM): 0%
[5]
  % Inhibition Skp2 @ 10 µM: 11%
  % Inhibition Skp2 @ (100 µM): 28%
